According to paper PMC8126837 (2021):
Where a chain is given by its changes, count along the chain named.

B1: WNb 23 (VHH)
VHH: QVQLQESGGGLVQPGGSLRLSCAASGFTFKDYAMAWARQVPGKGLEWVSGIYSDGNTYYADSVKGRFTISRDNAKNTVYLRMNSLKPEDTAVYYCATERHPQGAADFGSWGQGTQVTVSS
B2: WNb 19 (VHH)
VHH: QVQLQESGGGLVQPGGSLRLSCAASGSMFSINVMGWYRQASGKQRELVAGITRDGATNYSDSVKGRFTISGDNAKNTVYLQMNSLKPEDTAVYYCNTNVDSVWGSRIDYFGQGTQVTVSS
B3: WNb 41 (VHH)
VHH: QVQLQESGGGLVQPGGSLRLSCAVSGFTLDYYAIGWFRQAPGKEREGVSCISSSGGSTNYADSVKGRFTISRDNAKNTVYLQMNGLKPEDTAVYYCAAIAATYYSGSYYYQCPHDGMDYWGKGTQVTVSS
B4: WNb 67 (VHH)
VHH: B3 VHH with K76T, G85S, S105G, D115Y
B5: WNb 2 (VHH)
VHH: B3 VHH with S57N, N59K, I70A, V79F, G85S, Y110F
B6: WNb 7 (VHH)
VHH: QVQLQESGGGLVQPGGSLRLSCAAPGFTFSSYAMGWFRQVPGKGLEWVSGIYSDGSTYYADSVKGRFTISRDNAKNTVYLQMNSLKPEDTAVYYCAKDRLEGSSWPERDFGSWGQGTQVTVSS
B7: WNb 10 (VHH)
VHH: B6 VHH with P25S, S30R, S31R, A33L, F37A, L100M, E101D, S104T
B8: WNb 53 (VHH)
VHH: B6 VHH with P25S, A33L, F37A, S49A, T68I, L100M, G102D, S104T
B9: WNb 15 (VHH)
VHH: B6 VHH with P25S, A33L, S56G, K97T, L100M
B10: WNb 50 (VHH)
VHH: B6 VHH with P25S, K97A, L100M, E101A, S104R
B11: WNb 36 (VHH)
VHH: QVQLQESGGGLVQPGGSLRLSCAVSGFTLDYYAIGWFRQAPGKEREGVSCISNSGGNTKYADSVKGRFTTSVDNAQNTVYLLMNSLEPEDTAVYYCAAIAATYYSGTYYYQCPHYGMDYWGKGTQVTVSS
B12: WNbFc 15 (Fc fusion)
chain: B6 VHH with P25S, A33L, S56G, K97T, L100M
B13: WNbFc 7 (Fc fusion)
chain: B6 VHH
B14: WNbFc 36 (Fc fusion)
chain: B11 VHH
B15: WNbFc 2 (Fc fusion)
chain: B3 VHH with S57N, N59K, I70A, V79F, G85S, Y110F

Target: T1, SARS-CoV-2 receptor-binding domain (RBD), wild type (SARS-CoV-2, UniProt P0DTC2 331-527)
Assay: BLI

Question: B1 was tested. Which koff did it give?
Answer: 0.00245 s⁻¹

Question: B2 was tested. Which koff did it give?
Answer: 0.000107 s⁻¹

Question: With B3 as the binder, how does the koff read?
Answer: 0.000104 s⁻¹

Question: With B4 as the binder, how does the koff read?
Answer: 0.000212 s⁻¹

Question: B5 was tested. Which koff did it give?
Answer: 7.34e-05 s⁻¹

Question: B6 was tested. Which koff did it give?
Answer: 3.19e-05 s⁻¹

Question: With B7 as the binder, how does the koff read?
Answer: 9.64e-05 s⁻¹

Question: For B8, which koff is on record?
Answer: 0.00013 s⁻¹

Question: Which koff does the source give for B9 here?
Answer: 3.05e-05 s⁻¹

Question: For B10, which koff is on record?
Answer: 0.00013 s⁻¹

Question: B11 was tested. Which koff did it give?
Answer: 0.000127 s⁻¹

Target: T1, SARS-CoV-2 receptor-binding domain …
Assay: BLI
Remark: another data set of the same source

Question: How did the Kd turn out when B1 was run?
Answer: 9.03 nM

Question: Which Kd does the source give for B2 here?
Answer: 0.46 nM

Question: For B3, which Kd is on record?
Answer: 0.55 nM

Question: For B4, which Kd is on record?
Answer: 0.61 nM

Question: For B5, which Kd is on record?
Answer: 0.36 nM

Question: For B6, which Kd is on record?
Answer: 0.26 nM

Question: B7 was tested. Which Kd did it give?
Answer: 0.68 nM

Question: With B8 as the binder, how does the Kd read?
Answer: 0.64 nM

Question: Which Kd does the source give for B9 here?
Answer: 0.14 nM

Question: B10 was tested. Which Kd did it give?
Answer: 0.63 nM

Question: B12 was tested. Which Kd did it give?
Answer: 0.25 nM

Question: For B13, which Kd is on record?
Answer: 0.35 nM

Question: For B11, which Kd is on record?
Answer: 0.43 nM

Question: Which Kd does the source give for B14 here?
Answer: 0.36 nM

Target: T1, SARS-CoV-2 receptor-binding domain …
Assay: BLI
Remark: another data set of the same source

Question: With B15 as the binder, how does the Kd read?
Answer: 0.59 nM

Question: With B12 as the binder, how does the Kd read?
Answer: 0.44 nM

Question: Which Kd does the source give for B13 here?
Answer: 0.7 nM

Question: B14 was tested. Which Kd did it give?
Answer: 0.61 nM

Target: T2, SARS-CoV-2 spike (recombinant, used in bio-layer interferometry) (SARS-CoV-2, UniProt P0DTC2)
Assay: BLI

Question: With B15 as the binder, how does the Kd read?
Answer: < 0.01 nM

Question: B12 was tested. Which Kd did it give?
Answer: < 0.01 nM

Question: For B13, which Kd is on record?
Answer: < 0.01 nM

Question: Which Kd does the source give for B14 here?
Answer: < 0.01 nM

Target: T1, SARS-CoV-2 receptor-binding domain …
Assay: BLI
Remark: another data set of the same source

Question: For B15, which koff is on record?
Answer: 0.000158 s⁻¹

Question: For B12, which koff is on record?
Answer: 0.000128 s⁻¹

Question: Which koff does the source give for B13 here?
Answer: 0.000191 s⁻¹

Question: With B14 as the binder, how does the koff read?
Answer: 0.000202 s⁻¹

Target: T2, SARS-CoV-2 spike (recombinant, used in …)
Assay: BLI
Remark: another data set of the same source

Question: How did the koff turn out when B15 was run?
Answer: < 1e-06 s⁻¹

Question: For B12, which koff is on record?
Answer: < 1e-06 s⁻¹

Question: B13 was tested. Which koff did it give?
Answer: < 1e-06 s⁻¹

Question: For B14, which koff is on record?
Answer: < 1e-06 s⁻¹

Target: SARS2 S1
Assay: not given

Question: What does the source list for B15?
Answer: EC50: 1.17 nM; IC50: 0.66 nM

Question: Which results are given for B12?
Answer: EC50: 1.6 nM; IC50: 1.07 nM

Question: For B13, which EC50 is on record?
Answer: 0.46 nM

Question: What about the IC50 of the same binder?
Answer: 0.45 nM

Question: What does the source list for B14?
Answer: EC50: 0.63 nM; IC50: 0.32 nM

Target: SARS-CoV S1 subunit (SARS-CoV, UniProt P59594 14-667)
Assay: not given

Question: How did the EC50 turn out when B12 was run?
Answer: 1.69 nM

Question: With B13 as the binder, how does the EC50 read?
Answer: 1.12 nM
